Test results published in patent publication US20060286609A1 (BIOCHECK, published 2006).

B1: rabbit monoclonal anti-mouse Id1, clone #BCH-1/#37-2 (antibody, V domains shown)
VH: QSVEESGGRLVTPGTPLTLTCKVSGFDINSYAMDWFRQAPGKGLEWIGMMSTRGNTYYTSWAKGRFTISKTSSTTVDLKMTSLTTEDTATYFCARGGLWGPGTLVTVSS
VL: RVLTQTASPVSAAVGGTVTINCQASQSVYNGNRLGWYQLKPGQSPKELIHDASTLASGVPSRFRGSGSGTQFTLTINDVQCDDAATYYCVGSYACSTGDCNVFGGGTEVVVK
notes: Rabbit IgG from hybridoma, Protein G purified; also called m Id1 MoAb 37-2; Rabbit Monoclonal Anti-Mouse Id1 (#37-2)

Key:
[1] = biological target: T1, Mouse Id1: Histidine (mouse, UniProt P20067-2 1-148); assay: ELISA, coated antigen; reference mouse Id1
T1 construct: E. coli fusion protein (vector pGW07); also called m-Id1-His; not shown: His-tag
T1 sequence: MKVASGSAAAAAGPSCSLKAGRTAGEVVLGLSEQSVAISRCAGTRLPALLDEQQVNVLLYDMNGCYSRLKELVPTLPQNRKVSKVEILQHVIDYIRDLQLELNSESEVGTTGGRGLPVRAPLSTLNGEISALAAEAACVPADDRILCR

[2] = biological target: T2, human Id1 protein (human, UniProt P41134 1-155); assay: SPR (BIACORE 2000), antibody immobilized on CM5 chip, Id-1 as analyte, 1:1 Langmuir model
T2 construct: No tag stated; Western blots: endogenous in HeLa and other human cancer cell extracts; IHC: endogenous in human mammary tumor tissue
T2 sequence: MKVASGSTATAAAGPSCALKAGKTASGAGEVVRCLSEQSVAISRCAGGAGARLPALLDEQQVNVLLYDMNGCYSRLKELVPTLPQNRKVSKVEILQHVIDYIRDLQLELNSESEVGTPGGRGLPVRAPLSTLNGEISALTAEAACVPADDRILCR
Procedure: Antibodies were immobilized on CM5 sensor chips. All SPR (surface plasmon resonance) assays were carried out in a BIACORE 2000 instrument. A mouse monoclonal antibody was used as reference labeled at the 2nd channel (Fc2) of the chip. BCH-1#37-2 was immobilized on the 4th (Fc4) channel. Final conjugation of antibodies on chip surface was 1878 RU for BCH-1#37-2. Mouse Id-1 and human Id-1 were applied as mobile analytes. The binding assays were carried out in HBS-P buffer (10 mM HEPES, pH 7.4, containing 150 mM sodium chloride, 0.005% surfactant P-20 detergent and 0.12% glycerol). Kinetics were determined with 8 different analyte concentrations ranging from […] to 573 nM. For analyses, 125 μl of analyte were injected (Kinject protocol) at 30 μl/min and the dissociation lasted for 240 seconds at the same flow rate. The surface was regenerated by washing with 50 μl solution of 100 mM glycine and 100 mM of HCl, pH 1.81, at 60 μl/min and the extra cleaning protocol was followed. The kinetic analyses of sensograms were based on the Langmuir (1:1) binding model. Both association rate constant and dissociation rate constants for the interaction of mouse Id-1 and human Id-1 with the immobilized antibodies were determined from the analysis of sensograms using the Biaevaluation software, version 3.0. […]

[3] = biological target: T3, Human Id2: Histidine (human, UniProt Q02363 1-134, limits assumed); assay: ELISA, coated antigen, Ab 5.00 ug/ml
T3 construct: E. coli fusion protein (vector pGW07); also called h-Id2: His; not shown: His-tag
T3 sequence (looked up): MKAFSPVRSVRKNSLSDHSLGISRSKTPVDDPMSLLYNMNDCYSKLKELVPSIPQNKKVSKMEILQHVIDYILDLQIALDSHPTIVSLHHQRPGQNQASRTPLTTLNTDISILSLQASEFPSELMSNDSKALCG
Procedure: (§1) Incubate plates at 2-8° C. overnight (16-24 hours). [0145] 11. Shake off the BSA solution. [0146] 12. Dispense 250 μL of 2.5% sucrose solution into each well. [0147] 13. Incubate plates at 2-8° C. for 4 hours. [0148] 14. Shake off sucrose solution. [0149] 15. Dry in vacuum at room temperature overnight. Screening Method [0150] 1. Dispense 100 μL of antibody diluent, diluted rabbit polyclonal anti-Id1 into appropriate wells. […] 2. Incubate at room temperature with mechanical shaking at 750 rpm for 90 minutes. [0152] 3. Remove the incubation mixture by flicking plate content into an appropriate waste container, followed by rinsing the wells 5 times with distilled water. […] 4. Strike the wells sharply onto absorbent paper or paper towels to remove all residual water droplets. [0154] 5. Dispense 100 μL of Goat Anti-Rabbit IgG-HRP Conjugate Reagent into each well. Gently mix for 5 seconds. [0155] 6. Incubate at room temperature with mechanical shaking at 750 rpm for 90 minutes. […] 7. Repeat procedures 3 and 4. [0157] 8. Dispense 100 μL of TMB Reagent into each well. Gently mix for 5 seconds. [0158] 9. Incubate at room temperature with mechanical shaking at 750 rpm for 20 minutes. [0159] 10. Add 100 μL of Stop Solution (1N HCl) into each well. [0160] 11. Gently mix for 10 seconds to ensure a complete mixing. […] 12. Read optical density (absorbance) at 450 nm. Results from this assay were used to select the rabbit sera with the highest antibodies titer that selectively reacts with mouse Id1 or human Id1 or both.
(§2) A comparison was carried out between the reactivity of the rabbit monoclonal anti-mouse Id1, clone #BCH-1/#37-2, of this invention and the mouse monoclonal anti-mouse/human Id1 from BD Pharmingen with the following antigens prepared in Example 5: mouse Id1:His, human Id1:His, human Id2:His, human Id3:His, and GST. These antigens and protein were used to coat the wells.
(§3) Materials and methods were those described in Example 9 except (a) Pharmingen's mouse monoclonal anti-mouse Id1 was used in addition to the rabbit monoclonal anti-mouse Id1 (Example 10), and (b) goat anti-mouse IgG-HRP conjugate was used to process the wells treated with the Pharmingen monoclonal antibody and polyclonal goat anti-rabbit IgG-HRP conjugate was used to process wells treated with rabbit monoclonal anti-mouse Id1.

[4] = biological target: T4, glutathione S-transferase (GST) (UniProt P08515 1-218 = GST); assay: ELISA, coated antigen, Ab 5.00 ug/ml
T4 construct: Coated on wells as control for the fusion partner of the immunogen
Procedure: as §1, §2, §3

[5] = biological target: T5, Human Id3: Histidine (human, UniProt Q02535 1-119, limits assumed); assay: ELISA, coated antigen, Ab 5.00 ug/ml
T5 construct: E. coli fusion protein (vector pGW07); also called h-Id3: His; not shown: His-tag
T5 sequence (looked up): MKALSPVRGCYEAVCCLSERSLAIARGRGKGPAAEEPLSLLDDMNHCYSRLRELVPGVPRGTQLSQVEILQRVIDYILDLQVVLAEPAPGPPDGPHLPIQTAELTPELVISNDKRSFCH
Procedure: as §1, §2, §3

[6] = biological target: T1, Mouse Id1: Histidine; assay: ELISA, coated antigen, Ab 5.00 ug/ml
Procedure: as §1, §2, §3

[7] = biological target: T4, glutathione S-transferase (GST); assay: ELISA, coated antigen, Ab up to 10.0 ug/ml
Outline: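 Wells were coated with glutathione S-transferase and handled by an ELISA protocol. Coating buffers were 0.2 M sodium phosphate pH 6.5 and 10 mM potassium phosphate pH 7.4, with BSA/sodium azide and sucrose solutions. Antibodies were applied up to 10.0 ug/ml. Bound rabbit antibody was detected with goat anti-rabbit IgG-HRP conjugate and bound mouse antibody with goat anti-mouse IgG-HRP conjugate.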

T4 sequence (P08515 whole entry, the tested form may be a part): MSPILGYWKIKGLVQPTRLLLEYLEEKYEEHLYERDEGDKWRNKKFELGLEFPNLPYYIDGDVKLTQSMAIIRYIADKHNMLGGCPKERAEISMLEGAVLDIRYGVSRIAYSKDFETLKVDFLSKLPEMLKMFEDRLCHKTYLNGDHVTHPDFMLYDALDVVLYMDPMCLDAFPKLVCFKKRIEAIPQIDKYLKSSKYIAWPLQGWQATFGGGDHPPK

Row | Molecule | Cross-reactivity (%) [1] [%] | Ka [2] [M⁻¹] | A450 [3] [A450] | A450 [4] [A450] | A450 [5] [A450] | A450 [6] [A450] | binding result [7]
1 | rabbit monoclonal anti-mouse/human Id1, clone #BCH-1/#195-14 (antibody) | 100 |  |  |  |  |  | 
2 | B1 |  | 2.9e+09 | 0.083 | 0.086 | 0.091 | 3.26 | no binding
